The source of these data is patent US12427188B2, “Pyocyanine demethylases and related phenazine degrading agents compositions, methods and systems for interfering with viability of bacteria” (priority 2020, dated 2025).

Data set [1] is described as follows: Continuous spectrophotometric PYO demethylation assay (specific activity and kinetics of PodA). It counts as biochemical. The procedure: Specific activity and kinetics of PodA. To determine specific activity and kinetic parameters of PodA for PYO, a continuous spectrophotometric assay monitoring the absorbance of PYO (690 nm) was utilized. Briefly, assays were performed at 25° C. in 100 μL reaction volumes in 96-well plates and reactions were monitored at 690 nm over 10 min. Reaction mixtures contained Phosphate buffer (50 mM, pH 6.0), ethylene glycol (1%, v/v), protein (3 μM) and substrate (for specific activity, 100 μM, for kinetics, varying). Data were acquired using the SpectraMax® M3 Microplate Reader (Molecular Devices) using the Soft Max Pro software every 10 s over 10 min. Path lengths for each well were calculated using Soft Max Pro endpoint readings and slopes were corrected for path lengths of 1 cm.
Specific activity was calculated from the slope of the linear range of (ΔOD690 min^−1) using Beer's Law (A=εcl) with a path length of 1 cm and the molar extinction coefficient of PYO (4,130 M^−1 cm^−1). Equation was solved for c, giving specific activity in nmol min^−1 mg^−1 of PodA. For kinetic parameters, graphs of initial velocity (μM s^−1) versus substrate concentration (μM) were plotted using Prism v8 (GraphPad). The Michaelis-Menten kinetics model was used to determine Km and Vmax. The turnover number (kcat) was determined using the following equation: Vmax=kcat[E], where [E] was the concentration of PodA added. All spectrophotometric assays mentioned above were completed thrice, each in technical triplicate with a representative data set shown. Error bars represent standard deviation as calculated by Prism v8 (GraphPad). Standard deviation for kcat and Kcat KM^−1 was calculated using standard formulas for propagation of error.

The nature of data set [2]: Protein yield of PodA variants purified from inclusion bodies of overexpression culture. The procedure: Protein overproduction and purification of soluble and inclusion body fractions. Plasmids coding for proteins of interest were transformed into E. coli BL21 […]. […]. Cultures were grown at 37° C. with shaking to an optical density of 0.4 (OD600 nm) and plasmid expression was induced with IPTG (50 μM) and shaken overnight at 16° C. Cells were harvested by centrifugation at 5,000×g for 10 min in a Beckman Coulter Avanti J-20 XOI refrigerated centrifuge using a JLA-8.1000 rotor at 4° C. Cell pellets were stored at −80° C. until used.
For purification of PodA from inclusion bodies, the pellets remaining following lysis and centrifugation at 40,000×g were resuspended in 20 mL of detergent buffer [50 mM HEPES (pH 7.5) and 1% Triton-X (v/v)] using a Bio-gen PRO200 cell homogenizer (PRO Scientific). Sample was spun for 15 min at 40,000×g at 4° C. in a Beckman Coulter Avanti centrifuge with a JA-25.50 rotor. Supernatant was discarded and the remaining cell pellet was resuspended in 5 mL of buffer [50 mM HEPES (pH 7.5), 500 mM NaCl] using a cell homogenizer, supplemented with lysozyme (200 μg mL^−1), and incubated for 10 min. Volume was increased to 20 mL with HEPES (50 mM, pH 7) and sample was spun for 40,000×g at 4° C. for 15 min. Supernatant was discarded and pellet was homogenized in 10 mL of denaturing buffer 50 mM HEPES (pH 7.5), 500 mM NaCl, and 8M urea) and incubating rocking overnight. The sample was spun at for 40,000×g at 25° C. for 30 min and supernatant was incubated with 1 mL HisPur Ni-NTA resin (Thermo Fisher Scientific) on a rocking platform for 10 min. Beads were allowed to settle without shaking, supernatant was discarded, and resin was pipetted into glass gravity columns. Resin was washed with 15 mL of denaturing buffer, followed by an elution with denaturing buffer supplemented with imidazole (500 mM). Fractions were analyzed by SDS-PAGE and those containing protein were combined into SnakeSkin 3.5 K MWCO dialysis tubing (Thermo Fisher Scientific). Urea was slowly dialyzed out in HEPES (50 mM, pH 7.5) and NaCl (500 mM) by lowing urea concentrations by 1 M increments. Each step was dialyzed at RT for 30 min. Protein was dialyzed in HEPES (50 mM, pH 7.5), NaCl (500 mM), and imidazole (20 mM) overnight at 4° C. The following day, protein was cleaved for 3 h at 25° C. with TEV protease (1:50 mg:mg ratio of TEV to PodA). The sample was applied to a HisPur gravity column and cleaved protein in the flow thru was confirmed by SDS-PAGE. Cleaved PodA protein was then dialyzed for storage for 3 h at 4° C. in HEPES (50 mM pH 7.5), NaCl (250 mM) and finally in HEPES (50 mM, pH 7.5), NaCl (100 mM), and glycerol (20%, v/v). Protein concentration was established on a NanoDrop™ using the extinction coefficient and MW of each protein. Protein was drop frozen in LN2 and stored at −80° C. until use.

A further data set relates to Pseudomonas aeruginosa. Nature of the data set: Crystal violet biofilm assay. It counts as cell-based. Particulars: 24 h incubation, protein added from the beginning. As to the method:
Crystal violet assay. Pseudomonas aeruginosa grown overnight in LB were inoculated (1.5%, v/v) and grown for 24 h at 37° C. in 96-well round bottom plates in minimal medium (100 μL) with arginine (40 mM) as the sole carbon source. PodA was added with cells simultaneously and was present during growth and biofilm development. Planktonic cells were removed and attached cells were quantified with crystal violet staining (125 μL. 0.1% w/v), followed by washes with water and de-staining with an acetic acid (30%, v/v) mixture in water. Crystal violet was measured using a SpectraMax® M3 Microplate Reader (Molecular Devices) at an absorbance of 550 nm. Details of procedure were published previously (28)[43].

The subject of data set [3] is Pseudomonas aeruginosa aggregate biofilms. Particulars: previous experiments, succinate-minimal medium, 27 hours; cited from earlier work.
Setting [4] is: pH 6, 1% ethylene glycol, PodA 3 μM, substrate PYO.

B1: WT PodA41-162: Truncated wild-type pyocyanin demethylase from Mycobacterium fortuitum (MFORT_14352) lacking N-terminal membrane helix, SEQ ID NO: 3 (protein)
chain: VTMTLDVKNDQVAKHDFGKPGMDVGDMDIFSDILSVDGKQVGYDGGACFFTNVTPDNPMTYCELTIHLDAGEIFARSLTPHTLAPFTMAITGGTGEYANSKGELTVSGVATPDEKYELKLTK
The term Km denotes the substrate concentration at which the rate is half of its maximum. In general, kcat refers to the number of substrate molecules converted per active site and unit of time at saturation. For the molecule B1, in data set [1] (buffers pH 5.5-10.0, PodA 3 μM, PYO 100 μM), the “pH of optimal activity” value is recorded as 6. Moreover, in data set [1] (cystic fibrosis sputum range, 66 mM Na+, 15 mM K+), the “Effect of salts (NaCl and KCl) on activity” value is reported as “did not inhibit or enhance”. Moreover, in data set [1] (setting [4]), the Km was found to be 372 µM, the catalytic efficiency is reported as 4.74±0.24×10^2 M^−1 s^−1 and the kcat was 0.176 ± 0.003 s⁻¹. In addition, the “Effect of slight increase in viscosity (ethylene glycol or glycerol 1% v/v) on activity” value in data set [1] (pH 6, PodA 3 μM, PYO 100 μM) is “enhanced”. In addition, in data set [1] (protein from soluble fraction), the catalytic efficiency is given as 1.05±0.093×10^2 M^−1 s^−1. Moreover, the catalytic efficiency in data set [1] (protein purified from inclusion bodies, denatured and refolded) is given as 1.14±0.25×10^2 M^−1 s^−1. The protein yields in data set [2] (per L of bacterial culture, typical) was around 0.3 mg/L. In data set [2] (purified from inclusion bodies, per L of E. coli overexpression culture), this molecule had a Yield of 0.33 mg/L^−1. Also, in the data set with Pseudomonas aeruginosa, the “biofilm attachment (crystal violet)” value is reported as “biofilm attachment defect”. In addition, in data set [3], the “aggregate development in ABBA” value was “smaller aggregates in anoxic regions of the agar”.
